Laboratory results taken from patent CN115368463A (HEFEI TIANGANG IMMUNOLOGY PHARMACEUTICAL CO LTD, dated 2022).

Legend:
Nectin-4蛋白 = target: T1, Nectin-4蛋白 (Homo sapiens (Human), UniProt Q96NY8 32-510); test: flow cytometry on CHO-K1-Nectin-4 cells, antibody at 0.1-300 μg/mL, Alexa-647 anti-human Fc secondary antibody
T1 construct: also called PVRL4; CHO-K1-Nectin-4细胞
T1 sequence: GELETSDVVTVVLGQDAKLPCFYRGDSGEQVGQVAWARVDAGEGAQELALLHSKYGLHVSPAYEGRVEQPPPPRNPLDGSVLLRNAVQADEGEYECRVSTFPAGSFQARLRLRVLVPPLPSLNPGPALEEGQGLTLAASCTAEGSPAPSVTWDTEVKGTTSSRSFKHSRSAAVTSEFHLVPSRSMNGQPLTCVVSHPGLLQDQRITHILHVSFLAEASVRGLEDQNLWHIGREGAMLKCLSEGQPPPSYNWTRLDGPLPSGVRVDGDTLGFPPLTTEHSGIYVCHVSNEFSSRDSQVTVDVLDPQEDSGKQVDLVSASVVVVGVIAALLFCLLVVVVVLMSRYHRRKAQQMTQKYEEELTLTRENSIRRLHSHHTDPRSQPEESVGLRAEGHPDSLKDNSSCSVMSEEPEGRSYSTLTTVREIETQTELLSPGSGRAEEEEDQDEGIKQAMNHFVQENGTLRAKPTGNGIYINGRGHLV

CD27蛋白 = target: T2, CD27蛋白 (Homo sapiens (Human), UniProt P26842 20-260); test: flow cytometry on CHO-K1-CD27 cells, antibody at 0.1-300 μg/mL, Alexa-647 anti-human Fc secondary antibody
T2 construct: also called CHO-K1-CD27细胞; Jurkat-NFAT-lucia-CD27细胞
T2 sequence: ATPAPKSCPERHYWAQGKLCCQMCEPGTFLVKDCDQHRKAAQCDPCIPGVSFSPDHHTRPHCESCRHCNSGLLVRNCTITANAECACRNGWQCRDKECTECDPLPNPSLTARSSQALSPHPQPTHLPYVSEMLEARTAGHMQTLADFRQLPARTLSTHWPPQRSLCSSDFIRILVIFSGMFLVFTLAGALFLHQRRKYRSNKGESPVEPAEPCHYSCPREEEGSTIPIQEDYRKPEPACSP

binding result (Nectin-4蛋白): binds | binding result (CD27蛋白): binds
B1: 抗体CD27×Nectin-4 (bispecific antibody, human IgG1, kappa, L234A L235A)
scFv: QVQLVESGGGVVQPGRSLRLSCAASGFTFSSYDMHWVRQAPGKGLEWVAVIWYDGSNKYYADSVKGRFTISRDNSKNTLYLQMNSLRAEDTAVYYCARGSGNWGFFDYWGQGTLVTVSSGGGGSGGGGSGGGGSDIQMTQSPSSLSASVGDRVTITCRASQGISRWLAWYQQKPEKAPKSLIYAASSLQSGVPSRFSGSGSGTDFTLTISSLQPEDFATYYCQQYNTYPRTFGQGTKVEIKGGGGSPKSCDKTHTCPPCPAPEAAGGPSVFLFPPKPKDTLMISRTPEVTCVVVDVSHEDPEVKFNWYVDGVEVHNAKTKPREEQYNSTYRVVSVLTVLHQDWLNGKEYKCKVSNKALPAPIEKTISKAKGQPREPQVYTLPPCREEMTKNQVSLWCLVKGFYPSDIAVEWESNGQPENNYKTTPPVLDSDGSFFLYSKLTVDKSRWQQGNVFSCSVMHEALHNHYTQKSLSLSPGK
heavy: EVQLVESGGGLVQPGGSLRLSCAASGFTFSSYNMNWVRQAPGKGLEWVSYISSSSSTIYYADSVKGRFTISRDNAKNSLSLQMNSLRDEDTAVYYCARAYYYGMDVWGQGTTVTVSSASTKGPSVFPLAPSSKSTSGGTAALGCLVKDYFPEPVTVSWNSGALTSGVHTFPAVLQSSGLYSLSSVVTVPSSSLGTQTYICNVNHKPSNTKVDKKVEPKSCDKTHTCPPCPAPEAAGGPSVFLFPPKPKDTLMISRTPEVTCVVVDVSHEDPEVKFNWYVDGVEVHNAKTKPREEQYNSTYRVVSVLTVLHQDWLNGKEYKCKVSNKALPAPIEKTISKAKGQPREPQVCTLPPSREEMTKNQVSLSCAVKGFYPSDIAVEWESNGQPENNYKTTPPVLDSDGSFFLVSKLTVDKSRWQQGNVFSCSVMHEALHNHYTQKSLSLSPGK
light: DIQMTQSPSSVSASVGDRVTITCRASQGISGWLAWYQQKPGKAPKFLIYAASTLQSGVPSRFSGSGSGTDFTLTISSLQPEDFATYYCQQANSFPPTFGGGTKVEIKRTVAAPSVFIFPPSDEQLKSGTASVVCLLNNFYPREAKVQWKVDNALQSGNSQESVTEQDSKDSTYSLSSTLTLSKADYEKHKVYACEVTHQGLSSPVTKSFNRGEC
notes: also called CD27×Nectin-4抗体; CD27×Nectin-4双特异抗体
